These results are taken from doi:10.1101/2020.11.20.391094.

Broadly, the stoichiometry N is a count of units in the complex or per binding partner.

The target in experiment [1] is His-SctV, full length, synthesized in C41; also reconstituted in peptidiscs (His-SctV9-PR) (enteropathogenic E. coli (EPEC)). The experiment can be described thus: SEC-MALS. For orientation: Size exclusion chromatography separates by hydrodynamic size, large species first.
Experiment [2] shares this target. The experiment can be described thus: native gel or EMSA.
Experiment [3] addresses His-SctV-C, isolated C-terminal cytoplasmic domain of EPEC SctV (enteropathogenic E. coli (EPEC)). The experiment can be described thus: native MS.
The target is the same in experiment [4]. The experiment can be described thus: SEC-MALS.
Experiment [5] has the same target. The experiment can be described thus: native gel or EMSA. On the technique in general: A gel shift assay detects complexes by their altered migration in electrophoresis.
Experiment [6] has as its target SctV, full length, untagged, plasmid-borne in E. coli C41 (enteropathogenic E. coli (EPEC)). The experiment can be described thus: native gel or EMSA.

On to “His-SctV, full length, synthesized in C41; also reconstituted in peptidiscs (His-SctV9-PR) (natural protein)”, for which the stoichiometry N in experiment [1] and in experiment [2] was 9 in each case.

For the substance “His-SctV-C, isolated C-terminal cytoplasmic domain of EPEC SctV (domain or fragment)”, the stoichiometry N in experiment [3], in experiment [4] and in experiment [5] was 9 in each case.

“SctV, full length, untagged, plasmid-borne in E. coli C41 (natural protein)” displayed a stoichiometry N in experiment [6] of 9.
